Assay results reported in US7041441 (US Dept. of Health and Human Services, dated 2006).

T1: gp23* (major capsid protein of bacteriophage T4, cleaved mature form, in the expanded surface lattice) (bacteriophage T4, UniProt P04535 66-521)
T1 construct: mature; also called surface lattice protein; cleaved/expanded polyheads
T1 sequence: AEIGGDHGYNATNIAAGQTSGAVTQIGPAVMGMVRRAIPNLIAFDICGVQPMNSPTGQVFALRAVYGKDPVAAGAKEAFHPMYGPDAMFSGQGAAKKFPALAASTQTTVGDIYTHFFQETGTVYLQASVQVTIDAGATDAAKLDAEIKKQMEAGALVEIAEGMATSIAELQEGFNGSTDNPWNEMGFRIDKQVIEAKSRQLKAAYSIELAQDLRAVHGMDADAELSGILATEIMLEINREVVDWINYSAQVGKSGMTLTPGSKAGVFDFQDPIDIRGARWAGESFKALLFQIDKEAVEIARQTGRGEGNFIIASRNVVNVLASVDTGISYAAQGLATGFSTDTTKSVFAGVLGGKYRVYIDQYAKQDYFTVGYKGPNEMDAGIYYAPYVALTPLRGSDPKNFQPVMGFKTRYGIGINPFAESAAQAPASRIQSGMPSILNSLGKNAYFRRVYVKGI

B1: SOC-V3 fusion protein (SOC, Cys-Leu-Asn-Ser, 43-residue V3 loop domain of HIV-1 gp120) (other)
chain: MASTRGYVNIKTFEQKLDGNKKIEGKEISVAFPLYSDVHKISGAHYQTFPSEKAAYSTVYEENQRTEWIAANEDLWKVTGCLNSSVEINCTRPNNNTRKRIRIQRGPGRAFVTIGKIGNMRQAHCNI
notes: mature;domain: V3 loop; also called SOV-V3
B2: SOC (small outer capsid) protein of bacteriophage T4, wild type (other)
chain: MASTRGYVNIKTFEQKLDGNKKIEGKEISVAFPLYSDVHKISGAHYQTFPSEKAAYSTVYEENQRTEWIAANEDLWKVTG
notes: mature

Target: T1, gp23* (major capsid protein of …)
Experiment: co-pelleting with cleaved/expanded polyheads, quantitation of SDS-PAGE bands

Binder	molar ratio of SOC-V3:gp23*	molar ratio of SOC:gp23*
B1	1.8 mol/mol	–
B2	–	1.2 mol/mol
